B1: SPSB4 (parent)
chain: LDMDEGTLSFIVDGQYLGVAFRGL

Variants of: B1
Assay: protein stability index of a GFP-peptide fusion (GPS, HEK-293T) (PSI 1-6); higher = more stable
Details: c terminus: a fixed tail appended
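Note: lentivirally expressed fusions sorted by FACS into six bins by GFP to DsRed ratio, PSI derived from sequencing read proportions per bin multiplied by bin number.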

Q: With LDMDEGTLSFIVDGQYLGVAERGL as the variant, how does the protein stability index read?
A: The protein stability index was 1.96.

Q: With LDMDEGTLSFIVDGQYLGVANRGL as the variant, how does the protein stability index read?
A: Its protein stability index is 1.98.

Q: For LDMDEGTLSFIVDGQYLGVAYRGL, which protein stability index is on record?
A: The protein stability index was 2.27.

Q: For LDMDEGTLSFIVDGQYLGVAGRGL, which protein stability index is on record?
A: The protein stability index was 1.76.

Q: Which protein stability index does the source give for LDMDEGTLSFIVDGQYLGVALRGL here?
A: Its protein stability index is 1.8.

Q: Which protein stability index does the source give for LDMDEGTLSFIVDGQYLGVADRGL here?
A: Its protein stability index is 2.31.

Q: Which protein stability index does the source give for LDMDEGTLSFIVDGQYLGVAHRGL here?
A: Its protein stability index is 1.72.

Q: For LDMDEGTLSFIVDGQYLGVAMRGL, which protein stability index is on record?
A: Its protein stability index is 1.43.

Q: With LDMDEGTLSFIVDGQYLGVAVRGL as the variant, how does the protein stability index read?
A: Its protein stability index is 2.46.

Q: Which protein stability index does the source give for LDMDEGTLSFIVDGQYLGVAIRGL here?
A: The protein stability index was 2.95.

Q: For LDMDEGTLSFIVDGQYLGVAQRGL, which protein stability index is on record?
A: Its protein stability index is 1.98.

Q: Which protein stability index does the source give for LDMDEGTLSFIVDGQYLGVATRGL here?
A: Its protein stability index is 2.04.

Q: For LDMDEGTLSFIVDGQYLGVASRGL, which protein stability index is on record?
A: Its protein stability index is 2.18.

Q: Which protein stability index does the source give for LDMDEGTLSFIVDGQYLGVARRGL here?
A: Its protein stability index is 1.65.

Q: For LDMDEGTLSFIVDGQYLGVAARGL, which protein stability index is on record?
A: Its protein stability index is 1.7.

Q: For LDMDEGTLSFIVDGQYLGVAFRIL, which protein stability index is on record?
A: The protein stability index was 2.48.

Q: Which protein stability index does the source give for LDMDEGTLSFIVDGQYLGVAFRKL here?
A: The protein stability index was 1.97.

Q: For LDMDEGTLSFIVDGQYLGVAFRNL, which protein stability index is on record?
A: Its protein stability index is 2.38.

Q: Which protein stability index does the source give for LDMDEGTLSFIVDGQYLGVAFRFL here?
A: The protein stability index was 1.96.

Q: Which protein stability index does the source give for LDMDEGTLSFIVDGQYLGVAFREL here?
A: Its protein stability index is 2.42.

Q: Which protein stability index does the source give for LDMDEGTLSFIVDGQYLGVAFRDL here?
A: The protein stability index was 1.84.

Q: With LDMDEGTLSFIVDGQYLGVAFRQL as the variant, how does the protein stability index read?
A: The protein stability index was 1.47.

Q: With LDMDEGTLSFIVDGQYLGVAFRSL as the variant, how does the protein stability index read?
A: The protein stability index was 3.28.

Q: With LDMDEGTLSFIVDGQYLGVAFRCL as the variant, how does the protein stability index read?
A: The protein stability index was 1.86.

Q: For LDMDEGTLSFIVDGQYLGVAFRML, which protein stability index is on record?
A: Its protein stability index is 2.84.

Q: Which protein stability index does the source give for LDMDEGTLSFIVDGQYLGVAFRTL here?
A: The protein stability index was 2.5.

Q: Which protein stability index does the source give for LDMDEGTLSFIVDGQYLGVAFRPL here?
A: The protein stability index was 2.1.

Q: Which protein stability index does the source give for LDMDEGTLSFIVDGQYLGVAFRAL here?
A: Its protein stability index is 1.31.

Q: For LDMDEGTLSFIVDGQYLGVAFRVL, which protein stability index is on record?
A: The protein stability index was 3.48.

Q: For LDMDEGTLSFIVDGQYLGVAFRWL, which protein stability index is on record?
A: The protein stability index was 4.

Q: Which protein stability index does the source give for LDMDEGTLSFIVDGQYLGVAFRRL here?
A: Its protein stability index is 1.88.

Q: Which protein stability index does the source give for LDMDEGTLSFIVDGQYLGVAFRHL here?
A: The protein stability index was 2.5.

Q: For LDMDEGTLSFIVDGNYLGVAFRGL, which protein stability index is on record?
A: The protein stability index was 3.31.

Q: With LDMDEGTLSFIVDGIYLGVAFRGL as the variant, how does the protein stability index read?
A: Its protein stability index is 2.02.

Q: For LDMDEGTLSFIVDGTYLGVAFRGL, which protein stability index is on record?
A: The protein stability index was 3.63.

Q: For LDMDEGTLSFIVDGKYLGVAFRGL, which protein stability index is on record?
A: The protein stability index was 2.5.

Q: Which protein stability index does the source give for LDMDEGTLSFIVDGFYLGVAFRGL here?
A: Its protein stability index is 2.25.

Q: With LDMDEGTLSFIVDGHYLGVAFRGL as the variant, how does the protein stability index read?
A: Its protein stability index is 3.32.

Q: With LDMDEGTLSFIVDGVYLGVAFRGL as the variant, how does the protein stability index read?
A: The protein stability index was 2.19.

Q: For LDMDEGTLSFIVDGMYLGVAFRGL, which protein stability index is on record?
A: The protein stability index was 1.98.

Q: Which protein stability index does the source give for LDMDEGTLSFIVDGAYLGVAFRGL here?
A: The protein stability index was 2.87.

Q: For LDMDEGTLSFIVDGLYLGVAFRGL, which protein stability index is on record?
A: Its protein stability index is 2.2.

Q: For LDMDEGTLSFIVDGDYLGVAFRGL, which protein stability index is on record?
A: The protein stability index was 2.33.

Q: For LDMDEGTLSFIVDGYYLGVAFRGL, which protein stability index is on record?
A: Its protein stability index is 2.62.

Q: For LDMDEGTLSFIVDGEYLGVAFRGL, which protein stability index is on record?
A: Its protein stability index is 1.39.

Q: With LDMDEGTLSFIVDGSYLGVAFRGL as the variant, how does the protein stability index read?
A: Its protein stability index is 2.35.

Q: With LDMDEGTLSFIVDGQYLGKAFRGL as the variant, how does the protein stability index read?
A: Its protein stability index is 2.1.

Q: For LDMDEGTLSFIVDGQYLGCAFRGL, which protein stability index is on record?
A: Its protein stability index is 2.33.

Q: Which protein stability index does the source give for LDMDEGTLSFIVDGQYLGHAFRGL here?
A: The protein stability index was 2.07.

Q: Which protein stability index does the source give for LDMDEGTLSFIVDGQYLGIAFRGL here?
A: Its protein stability index is 2.77.

Q: With LDMDEGTLSFIVDGQYLGDAFRGL as the variant, how does the protein stability index read?
A: Its protein stability index is 1.99.

Q: Which protein stability index does the source give for LDMDEGTLSFIVDGQYLGRAFRGL here?
A: The protein stability index was 2.04.

Q: With LDMDEGTLSFIVDGQYLGAAFRGL as the variant, how does the protein stability index read?
A: Its protein stability index is 1.97.

Q: For LDMDEGTLSFIVDGQYLGLAFRGL, which protein stability index is on record?
A: The protein stability index was 1.94.

Q: With LDMDEGTLSFIVDGQYLGMAFRGL as the variant, how does the protein stability index read?
A: Its protein stability index is 2.32.

Q: Which protein stability index does the source give for LDMDEGTLSFIVDGQYLGTAFRGL here?
A: Its protein stability index is 2.1.

Q: Which protein stability index does the source give for LDMDEGTLSFIVDGQYLGEAFRGL here?
A: The protein stability index was 1.85.

Q: For LDMDEGTLSFIVDGQYLGGAFRGL, which protein stability index is on record?
A: The protein stability index was 2.18.

Q: Which protein stability index does the source give for LDMDEGTLSFIVDGQYLGQAFRGL here?
A: Its protein stability index is 1.94.

Q: For LDMDEGTLSFIVDGQYLGSAFRGL, which protein stability index is on record?
A: Its protein stability index is 1.66.

Q: With LDMDEGTLSFIVDGQYLGWAFRGL as the variant, how does the protein stability index read?
A: The protein stability index was 2.04.

Q: With LDMDEGTLSFIVDGQYLGFAFRGL as the variant, how does the protein stability index read?
A: Its protein stability index is 2.31.

Q: For LDMDEGTLSFIVDGQYLGNAFRGL, which protein stability index is on record?
A: Its protein stability index is 1.98.

Q: For LDMDEGTLSFIVDGQYLGPAFRGL, which protein stability index is on record?
A: The protein stability index was 2.43.

Q: For LDMDEGTLSFIVDGQYLGYAFRGL, which protein stability index is on record?
A: The protein stability index was 2.49.

Q: With LDMDEGTLSFIVDGQYLDVAFRGL as the variant, how does the protein stability index read?
A: The protein stability index was 2.55.

Q: For LDMDEGTLSFIVDGQYLTVAFRGL, which protein stability index is on record?
A: The protein stability index was 3.06.

Q: With LDMDEGTLSFIVDGQYLQVAFRGL as the variant, how does the protein stability index read?
A: The protein stability index was 1.42.

Q: For LDMDEGTLSFIVDGQYLAVAFRGL, which protein stability index is on record?
A: Its protein stability index is 2.82.

Q: Which protein stability index does the source give for LDMDEGTLSFIVDGQYLVVAFRGL here?
A: Its protein stability index is 2.45.

Q: Which protein stability index does the source give for LDMDEGTLSFIVDGQYLIVAFRGL here?
A: Its protein stability index is 4.2.

Q: Which protein stability index does the source give for LDMDEGTLSFIVDGQYLPVAFRGL here?
A: Its protein stability index is 1.26.

Q: With LDMDEGTLSFIVDGQYLYVAFRGL as the variant, how does the protein stability index read?
A: Its protein stability index is 3.25.

Q: For LDMDEGTLSFIVDGQYLMVAFRGL, which protein stability index is on record?
A: The protein stability index was 2.85.

Q: With LDMDEGTLSFIVDGQYLKVAFRGL as the variant, how does the protein stability index read?
A: Its protein stability index is 1.8.

Q: With LDMDEGTLSFIVDGQYLWVAFRGL as the variant, how does the protein stability index read?
A: The protein stability index was 1.91.

Q: Which protein stability index does the source give for LDMDEGTLSFIVDGQYLFVAFRGL here?
A: The protein stability index was 2.44.

Q: For LDMDEGTLSFIVDGQYLNVAFRGL, which protein stability index is on record?
A: Its protein stability index is 2.19.

Q: With LDMDEGTLSFIVDGQYLCVAFRGL as the variant, how does the protein stability index read?
A: Its protein stability index is 2.03.

Q: Which protein stability index does the source give for LDMDEGTLSFIVDGQYLSVAFRGL here?
A: Its protein stability index is 2.8.

Q: For LDMDEGTLSFIVDGQYLHVAFRGL, which protein stability index is on record?
A: The protein stability index was 2.93.

Q: With LDMDEGTLSFIVDGQYLLVAFRGL as the variant, how does the protein stability index read?
A: Its protein stability index is 2.31.

Q: For LDMDEGTLSFIVDGQYLEVAFRGL, which protein stability index is on record?
A: Its protein stability index is 2.06.

Q: Which protein stability index does the source give for LDMDEGTLSFIVDGQYLRVAFRGL here?
A: The protein stability index was 2.38.

Q: Which protein stability index does the source give for LDMDEGTLSFIVDGQYLGVAFRGG here?
A: The protein stability index was 1.69.

Q: With LDMDEGTLSFIVDGQYLGVAFRGK as the variant, how does the protein stability index read?
A: The protein stability index was 1.65.

Q: For LDMDEGTLSFIVDGQYLGVAFRGD, which protein stability index is on record?
A: The protein stability index was 1.78.

Q: Which protein stability index does the source give for LDMDEGTLSFIVDGQYLGVAFRGF here?
A: Its protein stability index is 3.21.

Q: With LDMDEGTLSFIVDGQYLGVAFRGA as the variant, how does the protein stability index read?
A: Its protein stability index is 1.22.

Q: Which protein stability index does the source give for LDMDEGTLSFIVDGQYLGVAFRGH here?
A: Its protein stability index is 3.29.

Q: Which protein stability index does the source give for LDMDEGTLSFIVDGQYLGVAFRGI here?
A: Its protein stability index is 3.11.

Q: For LDMDEGTLSFIVDGQYLGVAFRGE, which protein stability index is on record?
A: Its protein stability index is 1.48.

Q: For LDMDEGTLSFIVDGQYLGVAFRGM, which protein stability index is on record?
A: The protein stability index was 1.84.

Q: With LDMDEGTLSFIVDGQYLGVAFRGC as the variant, how does the protein stability index read?
A: Its protein stability index is 2.43.
